Reference: patent CN114641502A (SHANGHAI YINGMING BIOTECHNOLOGY CO LTD, dated 2022)

How the values were obtained:
W364-hPro1.ECD.His = target: T1, W364-hPro1.ECD.His (human, UniProt Q495A1 22-141); experiment: SPR (Biacore 8K), antibody captured by anti-human IgG Fc, TIGIT ECD as analyte, 1:1 model
T1 construct: extracellular domain; Analyte in the SPR assay; 20 kDa used for molar concentration; also called W364-hPro1.ECD.his (Sino); 人TIGIT胞外结构域
T1 sequence (looked up): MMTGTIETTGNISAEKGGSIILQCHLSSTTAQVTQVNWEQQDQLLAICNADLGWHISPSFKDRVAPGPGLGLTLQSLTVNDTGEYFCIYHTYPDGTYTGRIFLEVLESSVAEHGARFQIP

[1] = target: T2, 人TIGIT (full length, on cells) (human, UniProt Q495A1 22-244); experiment: flow cytometry competition on 293F cells expressing human TIGIT; competitor CD155.ECD-mFc at 2 μg/mL
T2 construct: whole, on cells; also called human TIGIT; hTIGIT
T2 sequence (looked up): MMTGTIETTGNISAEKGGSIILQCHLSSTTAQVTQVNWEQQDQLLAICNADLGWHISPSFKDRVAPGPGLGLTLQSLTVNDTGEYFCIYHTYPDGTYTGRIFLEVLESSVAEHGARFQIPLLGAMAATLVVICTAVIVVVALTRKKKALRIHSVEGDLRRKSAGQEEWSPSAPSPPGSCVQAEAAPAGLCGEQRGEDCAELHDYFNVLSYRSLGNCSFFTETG

[2] = target: T3, 食蟹猴TIGIT (full length, on cells) (cynomolgus monkey, UniProt A0A7N9I9V4 89-312); experiment: flow cytometry on Flp-In CHO cells expressing cynomolgus TIGIT
T3 construct: whole, on cells; also called cynomolgus TIGIT; W364-FlpinCHO.cynopro1.FL

[3] = target: T4, 小鼠TIGIT (full length, on cells) (mouse, UniProt P86176 29-249); experiment: flow cytometry on Flp-In CHO cells expressing mouse TIGIT
T4 construct: whole, on cells; also called mouse TIGIT; W364-FlpinCHO.mpro1.FL
T4 sequence (looked up): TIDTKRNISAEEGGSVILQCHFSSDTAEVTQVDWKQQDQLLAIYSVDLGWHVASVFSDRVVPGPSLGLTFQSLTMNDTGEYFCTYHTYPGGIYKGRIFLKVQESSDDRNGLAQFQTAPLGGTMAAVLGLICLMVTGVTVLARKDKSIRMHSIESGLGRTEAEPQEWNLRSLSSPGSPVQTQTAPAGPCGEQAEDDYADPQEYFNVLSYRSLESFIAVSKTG

[4] = target: T2, 人TIGIT (full length, on cells); experiment: flow cytometry on 293F cells expressing human TIGIT
[5] = target: T2, 人TIGIT (full length, on cells); experiment: flow cytometry affinity on CHOK1 cells over-expressing human TIGIT, quantitative beads
[6] = target: T2, 人TIGIT (full length, on cells); experiment: cell-based or functional assay

T3 sequence (A0A7N9I9V4 entry or part of it): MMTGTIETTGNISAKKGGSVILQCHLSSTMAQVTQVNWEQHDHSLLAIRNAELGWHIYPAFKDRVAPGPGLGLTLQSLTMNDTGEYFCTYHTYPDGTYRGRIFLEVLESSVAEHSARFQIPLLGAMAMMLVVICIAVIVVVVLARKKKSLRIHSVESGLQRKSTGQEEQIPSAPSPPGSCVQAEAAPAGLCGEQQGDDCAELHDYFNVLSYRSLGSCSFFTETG

Kd (W364-hPro1.ECD.His): 0.75 nM
IC50 [1]: 0.14 nM
EC50 [2]: 0.05 nM
EC50 [3]: 0.14 nM
EC50 [4]: 0.17 nM
Kd [5]: 0.027 nM
ADCC EC50 (LDH release, PBMC effectors) [6]: 0.0019 nM
NFAT-荧光素酶报告基因 EC50 [6]: 0.92 nM
B1: W3645-2.131.4-hIgG1L3 (antibody, V domains shown)
VH: QLQLQESGPGLVKPSETLSLTCAVSGGSITSSSYYWGWIRQPPGKGLEWIGSIFFSGITYYNPSLKSRVTVSVDTSKNQFSLKLSSVTAADTAIYYCARRGLGGILASGYFDYWGQGTLVTVSS
VL: QSALTQPASVSGSPGQSITISCTGTSNDVGGYNYVSWYQQHPGKAPRLLIFDVSNRRTGISNRFSGSKSGITASLTISGLQAEDEADYYCSSYTSISTLVVFGGGTKLTVL
notes: Fully human (OMT rat derived), human IgG1; also called WBP3645先导抗体; WBP3645最终先导抗体
